From IntAct's records for PubMed 31515488

B1: Ribosome quality control complex subunit TCF25 (Homo sapiens), Q9BQ70 (parent)
chain: MSRRALRRLRGEQRGQEPLGPGALHFDLRDDDDAEEEGPKRELGVRRPGGAGKEGVRVNNRFELINIDDLEDDPVVNGERSGCALTDAVAPGNKGRGQRGNTESKTDGDDTETVPSEQSHASGKLRKKKKKQKNKKSSTGEASENGLEDIDRILERIEDSTGLNRPGPAPLSSRKHVLYVEHRHLNPDTELKRYFGARAILGEQRPRQRQRVYPKCTWLTTPKSTWPRYSKPGLSMRLLESKKGLSFFAFEHSEEYQQAQHKFLVAVESMEPNNIVVLLQTSPYHVDSLLQLSDACRFQEDQEMARDLVERALYSMECAFHPLFSLTSGACRLDYRRPENRSFYLALYKQMSFLEKRGCPRTALEYCKLILSLEPDEDPLCMLLLIDHLALRARNYEYLIRLFQEWEAHRNLSQLPNFAFSVPLAYFLLSQQTDLPECEQSSARQKASLLIQQALTMFPGVLLPLLESCSVRPDASVSSHRFFGPNAEISQPPALSQLVNLYLGRSHFLWKEPATMSWLEENVHEVLQAVDAGDPAVEACENRRKVLYQRAPRNIHRHVILSEIKEAVAALPPDVTTQSVMGFDPLPPSDTIYSYVRPERLSPISHGNTIALFFRSLLPNYTMEGERPEEGVAGGLNRNQGLNRLMLAVRDMMANFHLNDLEAPHEDDAEGEGEWD
B2: Elongin-A2 (Homo sapiens), Q8IYF1 (parent)
chain: MAAGSTTLHAVEKLQVRLATKTEPKKLEKYLQKLSALPMTADILAETGIRKTVKRLRKHQHVGDFARDLAARWKKLVLVDRNTRPGPQDPEESASRQRFGEALQDQEKAWGFPENATAPRSPSHSPEHRRTARRTPPGQQRPHPRSHSREPRAERKCPRIAPADSGRYRASPTRTAPLRMPEGPEPAAPGKQPGRGHTHAAQGGPLLCPGCQGQPQGKAVVSHSKGHKSSRQEKRPLCAQGDWHSPTLIREKSCGACLREETPRMPSWASARDRQPSDFKTDKEGGQAGSGQRVPALEEAPDSHQKRPQHSHSNKKRPSLDGRDPGNGTHGLSPEEKEQLSNDRETQEGKPPTAHLDRTSVSSLSEVEEVDMAEEFEQPTLSCEKYLTYDQLRKQKKKTGKSATTALGDKQRKANESKGTRESWDSAKKLPPVQESQSERLQAAGADSAGPKTVPSHVFSELWDLSEAWMQANYDPLSDSDSMTSQAKPEALSSPKFREEAAFPGRRVNAKMPVYSGSRPACQLQVPTLRQQCAQVLRNNPDALSDVGEVPYWVLEPVLEGWRPDQLYRRKKDNHALVRETDELRRNHCFQDFKEEKPQENKTWREQYLRLPDAPEQRLRVMTTNIRSARGNNPNGREAKMICFKSVAKTPYDTSRRQEKSAGDADPENGEIKPASKPAGSSHTPSSQSSSGGGRDSSSSILRWLPEKRANPCLSSSNEHAAPAAKTRKQAAKKVAPLMAKAIRDYKRRFSRR
partner: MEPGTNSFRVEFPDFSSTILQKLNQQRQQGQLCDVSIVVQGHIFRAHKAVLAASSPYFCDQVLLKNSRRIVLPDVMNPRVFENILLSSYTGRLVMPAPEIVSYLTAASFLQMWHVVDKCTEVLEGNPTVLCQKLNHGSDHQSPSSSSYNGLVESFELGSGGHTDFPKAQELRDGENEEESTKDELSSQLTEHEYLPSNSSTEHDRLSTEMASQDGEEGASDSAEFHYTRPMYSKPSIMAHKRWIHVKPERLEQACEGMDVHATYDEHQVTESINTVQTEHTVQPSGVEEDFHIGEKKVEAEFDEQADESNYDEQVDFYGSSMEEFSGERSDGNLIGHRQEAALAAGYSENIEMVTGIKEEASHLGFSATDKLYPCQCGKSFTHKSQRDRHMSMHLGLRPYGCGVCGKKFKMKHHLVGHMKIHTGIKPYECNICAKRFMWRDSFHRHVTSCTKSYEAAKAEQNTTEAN
B3: Vacuolar protein sorting-associated protein 28 homolog (Homo sapiens), Q9UK41-2 (parent)
chain: MFHGIPATPGIGAPGNKPELYEEVKLYKNAREREKYDNMAELFAVVKTMQALEKAYIKDCVSPSEYTAACSRLLVQYKAAFRQVQGSEISSIDEFCRKFRLDCPLAMERIKEDRPITIKDDKGNLNRCIADVVSLFITVMDKLRLEIRAMDEIQPDLRELMETMHRMSHLPPDFEGRQTVSQWWVSLPARQSPAVPETLPARRSPAVPLRPSAPTCPVLHSQAADPERHVGVR
B4: Protein FAM13C (Homo sapiens), Q8NE31 (parent)
chain: MFSCFCFSLQDNSFSSTTVTECDEDPVSLHEDQTDCSSLRDENNKENYPDAGALVEEHAPPSWEPQQQNVEATVLVDSVLRPSMGNFKSRKPKSIFKAESGRSHGESQETEHVVSSQSECQVRAGTPAHESPQNNAFKCQETVRLQPRIDQRTAISPKDAFETRQDLNEEEAAQVHGVKDPAPASTQSVLADGTDSADPSPVHKDGQNEADSAPEDLHSVGTSRLLYHITDGDNPLLSPRCSIFSQSQRFNLDPESAPSPPSTQQFMMPRSSSRCSCGDGKEPQTITQLTKHIQSLKRKIRKFEEKFEQEKKYRPSHGDKTSNPEVLKWMNDLAKGRKQLKELKLKLSEEQGSAPKGPPRNLLCEQPTVPRENGKPEAAGPEPSSSGEETPDAALTCLKERREQLPPQEDSKVTKQDKNLIKPLYDRYRIIKQILSTPSLIPTIQEEEDSDEDRPQGSQQPSLADPASHLPVGDHLTYSNETEPVRALLPDEKKEVKPPALSMSNLHEATMPVLLDHLRETRADKKRLRKALREFEEQFFKQTGRSPQKEDRIPMADEYYEYKHIKAKLRLLEVLISKQDVAKTI
B5: G patch domain and ankyrin repeat-containing protein 1 (Homo sapiens), O95872 (parent)
chain: MSRPLLITFTPATDPSDLWKDGQQQPQPEKPESTLDGAAARAFYEALIGDESSAPDSQRSQTEPARERKRKKRRIMKAPAAEAVAEGASGRHGQGRSLEAEDKMTHRILRAAQEGDLPELRRLLEPHEAGGAGGNINARDAFWWTPLMCAARAGQGAAVSYLLGRGAAWVGVCELSGRDAAQLAEEAGFPEVARMVRESHGETRSPENRSPTPSLQYCENCDTHFQDSNHRTSTAHLLSLSQGPQPPNLPLGVPISSPGFKLLLRGGWEPGMGLGPRGEGRANPIPTVLKRDQEGLGYRSAPQPRVTHFPAWDTRAVAGRERPPRVATLSWREERRREEKDRAWERDLRTYMNLEF
B6: Ankyrin repeat and BTB/POZ domain-containing protein 1 (Homo sapiens), Q969K4 (parent)
chain: MDTSDLFASCRKGDVGRVRYLLEQRDVEVNVRDKWDSTPLYYACLCGHEELVLYLLANGARCEANTFDGERCLYGALSDPIRRALRDYKQVTASCRRRDYYDDFLQRLLEQGIHSDVVFVVHGKPFRVHRCVLGARSAYFANMLDTKWKGKSVVVLRHPLINPVAFGALLQYLYTGRLDIGVEHVSDCERLAKQCQLWDLLSDLEAKCEKVSEFVASKPGTCVKVLTIEPPPADPRLREDMALLADCALPPELRGDLWELPFPCPDGFNSCPDICFRVAGCSFLCHKAFFCGRSDYFRALLDDHFRESEEPATSGGPPAVTLHGISPDVFTHVLYYMYSDHTELSPEAAYDVLSVADMYLLPGLKRLCGRSLAQMLDEDTVVGVWRVAKLFRLARLEDQCTEYMAKVIEKLVEREDFVEAVKEEAAAVAARQETDSIPLVDDIRFHVASTVQTYSAIEEAQQRLRALEDLLVSIGLDC

Variants of: B1
Conditions: with sat1_human SAT1, P21673
Sequence of sat1_human SAT1, P21673 (P21673 whole entry): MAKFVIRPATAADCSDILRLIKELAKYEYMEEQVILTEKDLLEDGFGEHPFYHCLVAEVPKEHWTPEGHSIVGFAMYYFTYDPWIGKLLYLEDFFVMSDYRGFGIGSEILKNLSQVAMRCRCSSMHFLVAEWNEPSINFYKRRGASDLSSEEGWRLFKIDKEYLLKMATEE

Row | Variant | effect of a mutation on the interaction
1 | V526A | with no effect

Variants of: B2
Conditions: with zbt43_human ZBTB43, O43298

Row | Variant | effect of a mutation on the interaction
2 | C254F | disrupting interaction strength
3 | D302H | with no effect
4 | A446T | with no effect
5 | G505R | with no effect

Variants of: B3
Conditions: with ts101_human TSG101, Q99816

Row | Variant | effect of a mutation on the interaction
6 | R203W | with no effect

Variants of: B4
Conditions: with kif2a_human KIF2A

Row | Variant | effect of a mutation on the interaction
7 | K97R | with no effect

Variants of: B4
Conditions: with tfp11_human TFIP11, Q9UBB9
Sequence of tfp11_human TFIP11, Q9UBB9 (Q9UBB9 whole entry): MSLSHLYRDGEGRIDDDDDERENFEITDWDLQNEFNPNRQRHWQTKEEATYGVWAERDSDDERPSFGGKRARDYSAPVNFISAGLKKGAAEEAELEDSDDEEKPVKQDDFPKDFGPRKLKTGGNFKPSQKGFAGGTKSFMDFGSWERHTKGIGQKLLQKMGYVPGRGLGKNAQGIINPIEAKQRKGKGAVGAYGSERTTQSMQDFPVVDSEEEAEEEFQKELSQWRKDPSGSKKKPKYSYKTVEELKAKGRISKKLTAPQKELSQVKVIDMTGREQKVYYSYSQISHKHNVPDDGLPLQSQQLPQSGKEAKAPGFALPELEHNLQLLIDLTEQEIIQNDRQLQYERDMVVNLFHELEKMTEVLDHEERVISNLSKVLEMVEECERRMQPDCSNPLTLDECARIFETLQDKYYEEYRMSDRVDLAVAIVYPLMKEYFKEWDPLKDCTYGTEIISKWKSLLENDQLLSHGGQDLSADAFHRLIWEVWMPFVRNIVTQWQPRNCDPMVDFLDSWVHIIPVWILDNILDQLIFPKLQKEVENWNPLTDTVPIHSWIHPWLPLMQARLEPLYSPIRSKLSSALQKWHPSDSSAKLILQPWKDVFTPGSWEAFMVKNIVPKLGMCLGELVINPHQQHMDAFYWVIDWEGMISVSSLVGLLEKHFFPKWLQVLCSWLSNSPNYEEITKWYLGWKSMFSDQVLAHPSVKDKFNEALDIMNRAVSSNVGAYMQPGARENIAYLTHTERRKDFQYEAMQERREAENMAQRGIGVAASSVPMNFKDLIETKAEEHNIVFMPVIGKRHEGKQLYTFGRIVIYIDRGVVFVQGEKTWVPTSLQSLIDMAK

Row | Variant | effect of a mutation on the interaction
8 | P147S | with no effect

Variants of: B5
Conditions: with tri23_human TRIM23, P36406
Sequence of tri23_human TRIM23, P36406 (P36406 whole entry): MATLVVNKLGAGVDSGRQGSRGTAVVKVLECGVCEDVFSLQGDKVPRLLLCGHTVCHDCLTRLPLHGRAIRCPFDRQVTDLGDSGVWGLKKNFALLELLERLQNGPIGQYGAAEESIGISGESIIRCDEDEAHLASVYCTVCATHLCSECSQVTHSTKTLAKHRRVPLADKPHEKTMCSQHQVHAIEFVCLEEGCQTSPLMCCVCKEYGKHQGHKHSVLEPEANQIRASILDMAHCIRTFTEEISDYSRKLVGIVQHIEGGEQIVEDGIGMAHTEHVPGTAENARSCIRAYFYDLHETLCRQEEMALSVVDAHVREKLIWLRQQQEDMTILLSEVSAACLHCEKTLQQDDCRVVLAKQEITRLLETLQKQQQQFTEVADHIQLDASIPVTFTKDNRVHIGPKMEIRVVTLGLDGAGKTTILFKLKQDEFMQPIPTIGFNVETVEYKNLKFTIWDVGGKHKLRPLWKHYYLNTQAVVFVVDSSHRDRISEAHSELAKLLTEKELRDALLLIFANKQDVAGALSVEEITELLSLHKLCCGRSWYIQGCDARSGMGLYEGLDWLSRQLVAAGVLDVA

Row | Variant | effect of a mutation on the interaction
9 | D56E | with no effect

Variants of: B5
Conditions: with pnma1_human PNMA1, Q8ND90
Sequence of pnma1_human PNMA1, Q8ND90 (Q8ND90 whole entry): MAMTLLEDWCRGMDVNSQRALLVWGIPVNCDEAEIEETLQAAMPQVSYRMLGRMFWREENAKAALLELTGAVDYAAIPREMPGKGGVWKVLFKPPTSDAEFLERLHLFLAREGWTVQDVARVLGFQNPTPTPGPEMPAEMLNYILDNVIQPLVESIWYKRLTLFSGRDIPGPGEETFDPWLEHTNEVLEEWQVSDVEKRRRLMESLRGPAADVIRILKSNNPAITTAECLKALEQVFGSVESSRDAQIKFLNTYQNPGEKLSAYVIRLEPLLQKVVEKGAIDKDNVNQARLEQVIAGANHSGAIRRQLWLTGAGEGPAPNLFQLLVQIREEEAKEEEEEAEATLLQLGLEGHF

Row | Variant | effect of a mutation on the interaction
10 | R41L | with no effect

Variants of: B6
Conditions: with ef1d_human EEF1D

Row | Variant | effect of a mutation on the interaction
11 | R386H | with no effect

Variants of: B6
Conditions: with ef1a2_human EEF1A2, Q05639
Sequence of ef1a2_human EEF1A2, Q05639 (Q05639 whole entry): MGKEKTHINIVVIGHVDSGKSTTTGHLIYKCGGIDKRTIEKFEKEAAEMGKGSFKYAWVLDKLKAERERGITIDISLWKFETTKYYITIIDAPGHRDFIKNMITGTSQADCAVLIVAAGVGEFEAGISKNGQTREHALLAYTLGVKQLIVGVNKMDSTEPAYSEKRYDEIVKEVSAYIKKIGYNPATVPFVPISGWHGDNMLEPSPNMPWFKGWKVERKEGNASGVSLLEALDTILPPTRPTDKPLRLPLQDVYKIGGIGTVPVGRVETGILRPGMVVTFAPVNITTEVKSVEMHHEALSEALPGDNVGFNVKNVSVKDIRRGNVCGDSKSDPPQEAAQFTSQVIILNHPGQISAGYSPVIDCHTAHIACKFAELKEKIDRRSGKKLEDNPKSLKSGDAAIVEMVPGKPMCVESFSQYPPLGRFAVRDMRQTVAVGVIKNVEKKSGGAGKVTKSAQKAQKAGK

Row | Variant | effect of a mutation on the interaction
12 | R386H | with no effect

Variants of: B6
Conditions: with cul3_human CUL3, Q13618

Row | Variant | effect of a mutation on the interaction
13 | R386H | with no effect
